{"source": "paper PMC3546355", "molecular_target": "Cry1Aa toxin-binding region of BtR175 (BtR175-TBR) (Bombyx mori) (UniProt Q9XY09)", "assay": "SPR"}
{"substance": "Cry1Aa loop 3 mutant H^439MPR^442 (from UniProt P0A366 1-1176) (ligand)", "values": [{"measurement": "koff", "result": 0.00105, "unit": "s⁻¹"}]}
{"substance": "Cry1Aa loop 3 mutant Q^439PRG^442 (from UniProt P0A366 1-1176) (ligand)", "values": [{"measurement": "koff", "result": 0.00162, "unit": "s⁻¹"}]}
{"substance": "Cry1Aa loop mutant A^310QMA^313 (from UniProt P0A366 1-1176) (ligand)", "values": [{"measurement": "Kd", "result": 0.016, "unit": "µM"}]}
{"substance": "Cry1Aa loop mutant D^439TGN^442 (from UniProt P0A366 1-1176) (ligand)", "values": [{"measurement": "Kd", "result": 0.0135, "unit": "µM"}, {"measurement": "koff", "result": 0.00162, "unit": "s⁻¹"}]}
{"substance": "Cry1Aa loop mutant E^439PPA^442 (from UniProt P0A366 1-1176) (ligand)", "values": [{"measurement": "Kd", "result": 0.0116, "unit": "µM"}, {"measurement": "kon", "result": 121000, "unit": "M⁻¹ s⁻¹"}]}
{"substance": "Cry1Aa loop mutant G^435LVG^438 (from UniProt P0A366 1-1176) (ligand)", "values": [{"measurement": "Kd", "result": 0.0135, "unit": "µM"}, {"measurement": "koff", "result": 0.00559, "unit": "s⁻¹"}]}
{"substance": "Cry1Aa loop mutant I^443VPV^446 (from UniProt P0A366 1-1176) (ligand)", "values": [{"measurement": "Kd", "result": 0.0199, "unit": "µM"}, {"measurement": "koff", "result": 0.00316, "unit": "s⁻¹"}, {"measurement": "kon", "result": 158000, "unit": "M⁻¹ s⁻¹"}]}
{"substance": "Cry1Aa loop mutant L^367PRP^370 (from UniProt P0A366 1-1176) (ligand)", "values": [{"measurement": "Kd", "result": 0.0133, "unit": "µM"}]}
{"substance": "Cry1Aa loop mutant P^367RRP^370 (from UniProt P0A366 1-1176) (ligand)", "values": [{"measurement": "Kd", "result": 0.0121, "unit": "µM"}]}
{"substance": "Cry1Aa loop mutant S^371APN^374 (from UniProt P0A366 1-1176) (ligand)", "values": [{"measurement": "Kd", "result": 0.0133, "unit": "µM"}]}
{"substance": "Cry1Aa loop mutant S^435VVG^438 (from UniProt P0A366 1-1176) (ligand)", "values": [{"measurement": "Kd", "result": 0.0199, "unit": "µM"}, {"measurement": "koff", "result": 0.00379, "unit": "s⁻¹"}]}
{"substance": "Cry1Aa loop mutant T^439LRT^442 (from UniProt P0A366 1-1176) (ligand)", "values": [{"measurement": "Kd", "result": 0.0105, "unit": "µM"}, {"measurement": "koff", "result": 0.00158, "unit": "s⁻¹"}, {"measurement": "kon", "result": 151000, "unit": "M⁻¹ s⁻¹"}]}
{"substance": "Cry1Aa loop mutant V^443ELL^446 (from UniProt P0A366 1-1176) (ligand)", "values": [{"measurement": "Kd", "result": 0.0204, "unit": "µM"}, {"measurement": "koff", "result": 0.00272, "unit": "s⁻¹"}, {"measurement": "kon", "result": 133000, "unit": "M⁻¹ s⁻¹"}]}
